# In PMC8497785, “Structural Characterization of the RNA-Binding Protein SERBP1 Reveals Intrinsic Disorder and Atypical RNA Binding Modes”:
# T1: SERBP1 189-400 (Homo sapiens, UniProt Q8NC51 189-400)
# T1 sequence: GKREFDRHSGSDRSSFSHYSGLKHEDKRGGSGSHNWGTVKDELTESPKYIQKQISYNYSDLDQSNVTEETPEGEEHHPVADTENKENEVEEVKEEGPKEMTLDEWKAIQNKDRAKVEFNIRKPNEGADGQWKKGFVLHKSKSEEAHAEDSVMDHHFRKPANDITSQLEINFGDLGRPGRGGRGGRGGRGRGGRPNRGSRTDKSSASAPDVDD
# Target: T1, SERBP1 189-400
# Experiment: NMR 1H,15N-HSQC titration; RNA:protein 2:5 to 8:5; CSPs from C-terminal RGG box to C-terminus (N383, T388, S394, A395, V398), RGG glycine broadening; 20 mM sodium phosphate pH 6.9, 60 mM NaCl, 1 mM PMSF, 0.2 mM EDTA, 10% D2O, 4 °C; 50 µM protein
# Conditions: protein: recombinant; tags: N-terminal 8xHis removed by TEV (vector-derived residues may remain)
binder,measurement,value
GCGCGGG (ssRNA) [7-mer G-rich RNA (G-quartet ligand)],binding result,binds
